{"source": "paper PMC13368180", "about": "“In silico design and validation of high-affinity RNA aptamers for SARS-CoV-2 comparable to neutralizing antibodies”", "binders": {"B1": {"name": "Ta (RBD-PB6-Ta) (structured_RNA)", "RNA": "GGCGACAUUUGUAAUUCCUGGACCGAUACUUCCGUCAGGACAGAGGUUGCCA"}, "B2": {"name": "TaC23A (structured_RNA)", "RNA": "B1 RNA with C23A"}, "B3": {"name": "TaG34U (structured_RNA)", "RNA": "B1 RNA with G34U"}, "B4": {"name": "TaG34C (structured_RNA)", "RNA": "B1 RNA with G34C"}, "B5": {"name": "TaC23G (structured_RNA)", "RNA": "B1 RNA with C23G"}, "B6": {"name": "TaC23U (structured_RNA)", "RNA": "B1 RNA with C23U"}, "B7": {"name": "TaG34A (structured_RNA)", "RNA": "B1 RNA with G34A"}}, "note": "Substitutions are numbered along the chain they refer to."}
{"molecular_target": "SARS-CoV-2 spike RBD (SARS-CoV-2, UniProt P0DTC2 319-541)", "experiment": "EMSA", "settings": "protein: commercial", "units": {"Kd": "µM"}}
{"binder": "B1", "Kd": 111}
{"binder": "B2", "Kd": "55.7 ± 9.8"}
{"binder": "B3", "Kd": "54.7 ± 2"}
{"binder": "B4", "Kd": "33.5 ± 1.6"}
{"binder": "B5", "Kd": 168}
{"binder": "B6", "Kd": "48.7 ± 2"}
{"binder": "B7", "Kd": "55.5 ± 4.1"}
{"molecular_target": "SARS-CoV-2 spike RBD (SARS-CoV-2, UniProt P0DTC2 319-541)", "experiment": "EMSA", "settings": "protein: commercial; hairpin"}
{"binder": "GGUCCUGGACCGAUACUUCCGUCAGGACCA (structured_RNA)", "note": "[Tc (RBD-PB6-Tc)]", "binding result": "no binding"}
